Results from patent US20230035798A1 (CAPELLA BIOSCIENCE, published 2023).

T1: recombinant human soluble LIGHT, amino acids 74-240 (R&D Systems 664-LI-025) (human, UniProt O43557 74-240)
T1 construct: range 74-240; also called 74-240 LIGHT; Soluble LIGHT 74-240
T1 chain: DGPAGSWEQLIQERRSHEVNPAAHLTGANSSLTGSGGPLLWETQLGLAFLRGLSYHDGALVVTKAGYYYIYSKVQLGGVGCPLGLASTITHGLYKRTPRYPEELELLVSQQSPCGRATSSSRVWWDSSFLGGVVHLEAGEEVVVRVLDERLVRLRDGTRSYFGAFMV


Assays:
[1] = biological target: T1, recombinant human soluble LIGHT, amino …; assay: native mass spectrometry, LIGHT:antibody 1:5
Protocol: The LIGHT protein (R&D Systems 664-LI-025) was solubilised in PBS buffer at a final concentration of 4 μM, whereas the mAbs were maintained at 20 μM in PBS. The samples were buffer exchanged into ammonium acetate pH 7.4 at different concentrations via a column with a cut-off of 40 kDa prior to mass spectrometry optimisation. […] Samples were stored at 4° C. and were used within one week. The antibodies were diluted to 1 μM prior to MSanalysis. For complex formation the LIGHT protein was incubated with each antibody separately in 1:5 ratio on ice and native mass measurements were performed 30 min after incubation.
Native mass spectroscopy was utilised to determine the ratio of mAb bound to native trimeric LIGHT. The measured mass of 3B04 (IgG4) was 147256±0.7 Da and the F19 anti-LIGHT mAb, (IgG4 mAb from EP2292663) was 147364±6.6 Da. Unlike the monoclonal antibodies the LIGHT protein was highly heterogeneous as expected, due to post-translational glycosylation. Two major populations of the light protein were recorded with measured masses of 68 kDa and 71 kDa. Both of these proteoforms are higher in mass than the theoretical trimeric mass of the protein, 62827.38 Da. […] In the case of LIGHT binding with 3B04, the stoichiometry can be assigned to one antibody per one LIGHT protein (masses of 219630±221 Da and 216960±380 were recorded).

[2] = biological target: membrane LIGHT without residues 81-84 (EL4-NC-LIGHT cells) (human, UniProt O43557 1-240); assay: cell-based or functional assay
Sequence of membrane LIGHT without residues 81-84 (EL4-NC-LIGHT cells) (O43557 other isoform, or with tags, fused parts or gaps): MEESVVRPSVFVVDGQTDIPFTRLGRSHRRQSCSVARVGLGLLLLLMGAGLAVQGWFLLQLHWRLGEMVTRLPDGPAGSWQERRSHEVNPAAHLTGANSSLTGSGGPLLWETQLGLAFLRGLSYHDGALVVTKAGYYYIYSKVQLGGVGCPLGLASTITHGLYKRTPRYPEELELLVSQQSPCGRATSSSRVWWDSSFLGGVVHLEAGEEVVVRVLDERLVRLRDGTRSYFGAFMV

[3] = biological target: T1, recombinant human soluble LIGHT, amino …; assay: SPR (BIAcore), mAb captured on anti-human Fc, soluble LIGHT in flow
Protocol: Real-time binding interactions between captured antibody (chimeric anti-membrane LIGHT monoclonal antibody) captured on a biosensor matrix via goat anti-human Fe IgG and recombinant soluble LIGHT were measured by surface plasmon resonance (SPR) using the BIAcore system (GE Healthcare) according to manufacturer's instructions and standard procedures. Briefly, soluble LIGHT was diluted in HBS running buffer (GE Healthcare) and aliquots were injected through the immobilized protein matrices at a flow rate of […]. BIAevaluation software was used to calculate association rate (ka), dissociation rate (kd) and affinity (KD).
The specificity of two lead anti-membrane LIGHT mAbs to soluble LIGHT was determined by BIAcore analysis and compared to the KD calculated from the EC50 values in Table 7 (results in Table 9). In brief, mAbs 3D12, 3B04 were compared to a mAb that binds both soluble and membrane LIGHT, F19, (F19 IgG4 mAb from EP2292663). An irrelevant anti-HEL mAb, 2A11, was used as a negative control. The mAbs were captured on an anti-human Fc mAb coated chip and soluble LIGHT was passed over the surface and the kinetic parameters were calculated using BIAcore 3000 software. The soluble LIGHT preparations used were amino acids 74-240 LIGHT (R&D Systems, 664-LI-025) and 64-240 LIGHT (Abcam, ab82123).

[4] = biological target: T2, human LIGHT (TNFSF14), full length, membrane-bound (214E allele) (human, UniProt O43557 1-240); assay: flow cytometry, mAb binding to EL4 cells stably expressing human LIGHT [lower panel]
T2 construct: also called membrane LIGHT; human membrane LIGHT

[5] = biological target: T2, human LIGHT (TNFSF14), full length, …; assay: KD calculated from EC50 on EL4-LIGHT cells, flow cytometry
[6] = biological target: T2, human LIGHT (TNFSF14), full length, …; assay: flow cytometry, EL4-LIGHT cells
Target sequence in this assay (O43557 whole entry K214E): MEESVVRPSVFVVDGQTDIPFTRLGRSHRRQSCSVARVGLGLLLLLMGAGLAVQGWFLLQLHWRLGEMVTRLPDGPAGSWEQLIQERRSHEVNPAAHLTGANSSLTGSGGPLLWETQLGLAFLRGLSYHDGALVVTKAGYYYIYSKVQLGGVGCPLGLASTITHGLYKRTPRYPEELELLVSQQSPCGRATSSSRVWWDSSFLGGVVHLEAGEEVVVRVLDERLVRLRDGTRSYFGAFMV

[7] = biological target: T2, human LIGHT (TNFSF14), full length, …; assay: flow cytometry, mAb binding to EL4 cells stably expressing human LIGHT [upper panel]

Binder	stoichiometry, antibodies per LIGHT trimer [1]	IC50, inhibition of IL-8 secretion from HT-29 cells (EL4-NC-LIGHT cells) [2] [nM]	Kd [3] [nM]	koff [3] [s⁻¹]	kon [3] [M⁻¹ s⁻¹]	EC50 (read off the curve) [4] [nM]	Kd [5] [nM]	EC50 [6] [nM]	EC50 (read off the curve) [7] [nM]
3B04 (antibody, human IgG4, V domains shown, chimeric: mouse variable domains on human IgG4 HC (S-to-P and L-to-E at 248) and human CL; also called Parental 3B04; 3B04 chimeric) VH: QVQLQQPGAELVRPGASVTLSCKASGYTFTDYEMHWVKQTPVHGLEWIGEIDPETGDTAYSQKFKGKATLTADKSSSTAYMEFRSLTSEDSAVYYCSRETDYFFDYWGQGTTLTVSS VL: DIQMTQTPASLSASVGETVTITCGASENIYGALNWYQRKQGKSPQLLIYGATNLADGMSSRFSGSGSGRQYSLKISSLHPDDFATYYCQNVLTTPWTFGGGTKLEIKR	1 antibodies per LIGHT trimer	0.05	15.7	0.00348	222000	~0.2	0.15	0.12	~0.1
3D12 (antibody, human IgG4, V domains shown, chimeric: mouse variable domains on human IgG4 HC (S-to-P and L-to-E at 248) and human CL; also called Parental 3D12; 3D12 chimeric) VH: QVQLQQPGAELVRPGASVTLSCKASDYTFTDSEIHWVKQTPVHGLEWIGEIDPETGGTAYNQKFKGKATLTADKSSSTAYMELRSLTSEDSAVYYCSRETDYFFDYWGQGTTLTVSS VL: DIQMTQSPASLSASVGETVTITCGASENIYGALNWYQRKQGKSPQLLIYGATNLADGMSSRFSGSGSGRQYSLKISSLHPDDVATYYCQNVLSTPWTFGGGTKLEIKR		0.32	14	0.00235	168000	~0.2	0.2	0.08	
